According to patent US20020086323:

Biological target: T1, LtrA (Lactococcus lactis) (UniProt P0A3U0)
T1 sequence: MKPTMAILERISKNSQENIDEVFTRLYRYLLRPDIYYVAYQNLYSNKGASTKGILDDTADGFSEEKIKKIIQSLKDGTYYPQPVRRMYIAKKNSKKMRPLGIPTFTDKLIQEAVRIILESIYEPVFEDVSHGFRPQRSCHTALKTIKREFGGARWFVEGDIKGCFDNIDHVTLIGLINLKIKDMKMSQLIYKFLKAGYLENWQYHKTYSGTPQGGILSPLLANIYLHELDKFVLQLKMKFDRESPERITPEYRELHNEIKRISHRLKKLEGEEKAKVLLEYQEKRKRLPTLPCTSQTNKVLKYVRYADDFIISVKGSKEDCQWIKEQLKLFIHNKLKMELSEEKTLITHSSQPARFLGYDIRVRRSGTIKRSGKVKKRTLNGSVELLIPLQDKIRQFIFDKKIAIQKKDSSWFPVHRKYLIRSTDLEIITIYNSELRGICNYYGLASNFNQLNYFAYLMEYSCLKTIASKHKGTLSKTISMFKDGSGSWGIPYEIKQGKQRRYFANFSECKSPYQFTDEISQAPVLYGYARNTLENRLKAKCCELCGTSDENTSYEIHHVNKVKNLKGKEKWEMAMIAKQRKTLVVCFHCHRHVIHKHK
Assay: cleavage_in_vitro

Ll.ltrB intron RNA ; ltrB +2 to +5 TGCG was tested. Which binding signal did it give?
Its binding signal is < 10 % of WT.
